Laboratory results published in the supplement of paper PMC10567573.

B1: HNF4A (parent)
chain: RFSRQCVVDKDKRNQCRYCRLKKC
B2: C10orf62 (parent)
chain: MLWVQRKRRRKETSECPSDKDKSP

Variants of: B1
Assay: protein stability index of a GFP-peptide fusion (GPS, HEK-293T) (PSI 1-6); higher = more stable
Conditions: c terminus: a fixed tail appended
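Note: lentivirally expressed fusions sorted by FACS into six bins by GFP to DsRed ratio, PSI derived from sequencing read proportions per bin multiplied by bin number.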

Protein stability index: each site, then its substitutions
K23: D 1.65; G 2.15; S 1.41; N 1.77; W 2.05; A 1.89; Q 2.74; Y 2.24; P 1.74; E 2.04; I 1.68; F 2.67; T 2.37; M 3.12; V 2.04; L 1.34; H 2.4; C 2.54
R20: Y 2.28; H 1.58; K 2.58; F 2.12; G 3.23; S 2.72; Q 2.98; E 2.84; I 2.42; N 2.62; V 2.56; C 2.24; A 2.96; D 3; T 2.74; P 3.15; M 2.96; W 1.43; L 2.35
Y18: I 3.54; A 2.2; F 2.63; C 3.61; R 3.36; N 3.78; K 3.73; G 3.04; H 3.64; M 3.13; E 3.41; P 3; S 3.69; L 2.19; Q 3.54; T 3.2
L21: Y 3.01; R 4.08; Q 3.64; C 3.73; A 3.51; N 3.33; D 3.35; P 2.94; K 4.07; W 2.94; G 2.94; I 3.22; V 2.31; S 3.36; M 3.61; E 3.08; T 2.93; H 3.41; F 2.86
C24: I 2.93; L 2.39; W 1.81; A 3.01; Q 2.5; S 2.5; Y 2.77; R 2.42; N 2.89; G 2.41; F 2.55; E 1.01; T 3.08; V 2.34; M 3.33; K 2.62; H 2.77
R17: D 3.29; E 3.78; T 2.69; M 2.79; N 3.45; I 2.9; V 2.21; G 3.16; Y 2.21; P 2.9; H 2.83; Q 3.42; F 2.57; A 2.77; K 2.54; W 2.42; L 1.84; S 2.4; C 2.29
C16: S 3.52; Q 3.38; R 4.33; W 3.37; Y 3.48; T 3.56; V 3.33; N 3.31; P 3.58
C19: P 3.13; N 3.71; T 2.99; R 3.37; A 3.07; W 2.46; M 3.08; L 3.07; S 3.65; G 3.04; I 2.03; V 2.95; H 3.07; D 4.09; Q 3.73; F 2.39
K22: R 2.9; I 1.73; S 2.73; L 2.57; G 2.27; C 2.66; P 2.12; T 2.13; H 1.71; Q 1.79; M 1.56; A 2.08; Y 1.98; F 1.8; V 1.83; E 1.54; D 2.13

Variants of: B2
Assay: as above
Conditions: c terminus: a fixed tail appended

Protein stability index: each site, then its substitutions
P24: S 3.11; L 2.37; M 2.46; N 2.8; D 3.28; H 3.31; K 2.16; F 2.46; Q 3.54; R 3.31; G 3.59; W 3.58
M1: A 2.93; N 4.55; G 4; V 3.29; I 1.24
K20: V 3.27; T 3.35; G 3.29; H 2.97; P 3.19; A 2.74; D 4.06
K22: A 4.4; T 3.48
E12: A 3.13; C 2.7; P 3.67; S 3.45; F 2.5; I 2.39; T 2.92; D 2.39; Q 3.37; H 3.16; Y 2.68; N 2.67; L 3.02; V 2.93
V4: E 4.56; A 4.6
R8: L 2.51; Q 4.1; H 3.89; F 3.05; D 3.52; I 3.36; N 3.78; C 3.34; K 3.15
S14: E 3.2; W 2.94; T 2.55; M 3.31; V 3.14; R 2.55; H 2.71; D 3.12; G 3.1
L2: M 2.89; W 2.53; D 4.88; C 2.87; T 3.31; A 3.92; K 2.98
K7: Y 1.57; C 2.31; N 3.9; V 2.69; Q 3.74; A 3.08; H 3.69; F 2.73; G 3.23; M 3.06; D 3.97; T 3.15
E15: F 3; L 2.84; W 2.15; D 3.26; P 2.99; R 2.54; S 2.96; Q 3.56; Y 2.76
Q5: K 4.1; Y 2.8; N 3.44; I 2.21; M 2.62; W 1.93
D19: M 3.44; Y 2.99; V 2.63; N 2.92; L 1.98
C16: N 3.16; S 4.01; G 2.43; K 3.41; V 2.81; I 2.95
D21: P 2.62; Y 2.32; G 3.36; R 1.92; E 3.44; F 2.4; L 2.29; I 2.32
R9: H 3.32; D 3.62; M 3.63; Q 3.2; A 3.71; V 3.18; T 3.49; C 2.81; F 3.64; I 3.4
S18: Q 3.42; A 3.23; D 3.07; E 2.88; R 3.21; V 2.9; T 2.75; G 3.58
T13: L 3.4; R 3.48; W 2.75; C 2.42; V 4.26
R6: D 3.9; G 3.54; S 3.42; F 3.11; K 3.13; I 3.21
W3: M 3.46; N 4.66; Q 3.13; D 4.99; R 4.46; P 5.09; C 4.07; I 3.25; A 4.3; L 3.73; S 4.87
K11: P 3.34; D 3.46; M 2.71; Q 3.44; G 2.9; F 2.73; C 2.46; A 4.09; H 2.72; R 3.39; Y 2.31; T 2.73
R10: H 3.45; D 4.11; F 2.33; K 3.41; Y 2.78; S 3.21
S23: P 2.88; K 2.27; M 3.39; F 2.5; H 2.77; E 2.48; G 3.25; V 3.58; D 3.49
P17: L 2.98; C 2.74; S 2.92; T 3.08
